# From patent US20070110747A1 (Amgen, published 2007)
# T1: human sclerostin, mature form (signal peptide removed) (human, UniProt Q9BQB4 24-213)
# T1 construct: 190 amino acid glycoprotein; also called SOST; recombinant human sclerostin
# T1 sequence: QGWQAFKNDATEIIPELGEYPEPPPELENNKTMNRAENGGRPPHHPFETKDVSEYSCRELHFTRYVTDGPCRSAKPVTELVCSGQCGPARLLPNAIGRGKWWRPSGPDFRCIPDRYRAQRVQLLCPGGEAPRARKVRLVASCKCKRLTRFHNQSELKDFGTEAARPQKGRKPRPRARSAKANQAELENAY
# T2: rat sclerostin peptide KWWRPNGPDFRCIPDRYRAQRV (rat)
# T2 construct: Coupled to the plate through its cysteine
# T2 peptide: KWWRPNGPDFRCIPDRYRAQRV
# B1: Antibody A (antibody, mouse IgG1, kappa, V domains shown)
# VH: QSLEESGGRLVTPGTPLTLTCTASGFSLSSYWMNWVRQAPGEGLEWIGTIDSGGRTDYASWAKGRFTISRTSTTMDLKMTSLTTGDTARYFCARNWNLWGQGTLVTVSS
# VL: AQVLTQTPASVSAAVGGTVTINCQSSQSVYDNNWLAWFQQKPGQPPKLLIYDASDLASGVPSRFSGSGSGTQFTLTISGVQCADAATYYCQGAYNDVIYAFGGGTEVVVKR
# notes: Rabbit-mouse chimeric antibody; mature chains (signal peptides cleaved off); also called Ab-A; Mab-A
# B2: Antibody 13 (antibody, mouse IgG1, kappa, V domains shown)
# VH: EVQLQQSGPELVKPGASVKMSCKASGYTFTDYYMNWVKQSHGESLEWIGDINPYNDDTTYNHKFKGKATLTVDKSSNTAYMQLNSLTSEDSAVYYCARETAVITTNAMDYWGQGTSVTVSS
# VL: QIVLTQSPAIMSASPGEKVTMTCRASSSVTSSYLNWYQQKPGSSPKLWIYSTSNLASGVPARFSGSGSGTSYSLTISSVEAEDAATYYCQQYDFFPSTFGGGTKLEIKR
# notes: … = EVQ); also called Ab-13
# B3: Antibody 3 (antibody, mouse IgG1, kappa)
# light: EIVLTQSPALMAASPGEKVTITCSVSSTISSNHLHWFQQKSDTSPKPWIYGTSNLASGVPVRFSGSGSGTSYSLTISSMEAEDAATYYCQQWSSYPLTFGAGTKLELRRADAAPTVSIFPPSSEQLTSGGASVVCFLNNFYPKDINVKWKIDGSERQNGVLNSWTDQDSKDSTYSMSSTLTLTKDEYERHNSYTCEATHKTSTSPIVKSFNRNEC
# heavy: EVQLQQSGAELVRPGALVKLSCTASDFNIKDFYLHWMRQRPEQGLDWIGRIDPENGDTLYDPKFQDKATLTTDTSSNTAYLQLSGLTSETTAVYYCSREADYFHDGTSYWYFDVWGAGTTITVSSAKTTPPSVYPLAPGSAAQTNSMVTLGCLVKGYFPEPVTVTWNSGSLSSGVHTFPAVLQSDLYTLSSSVTVPSSTWPSETVTCNVAHPASSTKVDKKIVPRDCGCKPCICTVPEVSSVFIFPPKPKDVLTITLTPKVTCVVVDISKDDPEVQFSWFVDDVEVHTAQTQPREEQFNSTFRSVSELPIMHQDWLNGKEFKCRVNSAAFPAPIEKTISKTKGRPKAPQVYTIPPPKEQMAKDKVSLTCMITDFFPEDITVEWQWNGQPAENYKNTQPIMDTDGSYFIYSKLNVQKSNWEAGNTFTCSVLHEGLHNHHTEKSLSHSPGK
# notes: also called Ab-3
# B4: Antibody 19 (antibody, V domains shown)
# VH: EVQLQQSGPELVKPGASVKMSCKASGFTFTDYIMHWVKQKPGQGLEWIGYINPYNDDTEYNEKFKGKATLTSDKSSSTAYMDLSSLTSEGSAVYYCARSIYYYDAPFAYWGQGTLVTVSS
# VL: DIQMTQTTSSLSASLGDRVNISCRASQDISSYLNWYQQKPDGTVKLLIYSTSRLNSGVPSRFSGSGSGTDYSLTISNLAQEDIATYFCQQDIKHPTFGGGTKLELKR
# notes: also called Ab-19
# B5: Antibody 4 (antibody, mouse IgG1, kappa, V domains shown)
# VH: EVQLQQSGPELMKPGASVKMSCKASGYTFTDYNMHWVKQNQGKTLEWIGEINPNSGGAGYNQKFKGKATLTVDKSSTTAYMELRSLTSEDSAVYYCARLGYDDIYDDWYFDVWGAGTTVTVSS
# VL: DIQMTQITSSLSASLGDRVSISCRASQDISNYLNWYQQKPDGTFKLLIFYTSRLLSGVPSRFSGSGSGTDYSLTIYNLEQEDFATYFCQQGDTLPYTFGGGTKLEIKR
# notes: also called Ab-4
# Target: T1, human sclerostin, mature form (signal …)
# Test: Biacore cross-blocking on immobilised human sclerostin; RU of 1:1 mixture, competitor Ab-4
# Procedure: (§1) The antibodies to be tested were diluted to a concentration of 200 ug/ml in HBS-EP buffer (being 10 mM HEPES pH 7.4, 150 mM NaCl, 3 mM EDTA, 0.005% (v/v) Surfactant P20) and then mixed in a one to one molar ratio (on a binding site basis) to generate the test mixture. This test mixture thus contained each antibody at a concentration of 100 ug/ml (1.3 um on a binding site basis). Separate solutions containing each of the antibodies in the test mix alone were also prepared. These solutions contained the individual antibodies in HBS-EP buffer at a concentration of 100 ug/ml (1.3 um on a binding site basis).
# (§2) 20 μL of the test mixture was passed over the sclerostin-coated chip at a flow rate of 10 μL/min and the amount of binding recorded. The chip was then treated with two 60 second pulses of 30 mM HCl to remove all of the bound antibody. A solution containing only one of the antibodies of the test mixture (at 1.3 μM in the same buffer as the test mixture on a binding site basis) was then passed over the chip in the same manner as the test mixture and the amount of binding recorded. The chip was again treated to remove all of the bound antibody and finally a solution containing the other antibody from the test mixture alone (at 1.3 μM in the same buffer as the test mixture on a binding site basis) was passed over the chip and the amount of binding recorded.
# (§3) The table below show the results from cross-blocking assays on a range of different antibodies. The values in each square of the table represent the amount of binding (in RU) seen when the antibodies (at 1.3 μM on a binding site basis) or buffer indicated in the top row of the table were mixed with the antibodies (at 1.3 uM on a binding site basis) or buffer indicated in the first column of the table.
row,binding (RU),Binder
1,833,B1
2,1010,B2
3,845,B3
4,789,B4

# Target: T1, human sclerostin, mature form (signal …)
# Test: Biacore cross-blocking on immobilised human sclerostin; RU of 1:1 mixture, competitor Ab-A
# Procedure: as §1, §2, §3
row,binding (RU),Binder
1,1110,B2
2,860,B5
3,952,B3
4,863,B4

# Target: T1, human sclerostin, mature form (signal …)
# Test: Biacore cross-blocking on immobilised human sclerostin; RU of 1:1 mixture, competitor Ab-19
# Procedure: as §1, §2, §3
row,binding (RU),Binder
1,868,B1
2,1040,B2
3,822,B5
4,896,B3

# Target: T1, human sclerostin, mature form (signal …)
# Test: Biacore cross-blocking on immobilised human sclerostin; RU of 1:1 mixture, competitor Ab-13
# Procedure: as §1, §2, §3
row,binding (RU),Binder
1,1080,B1
2,1020,B5
3,428,B3
4,1020,B4

# Target: T1, human sclerostin, mature form (signal …)
# Test: Biacore cross-blocking on immobilised human sclerostin; RU of 1:1 mixture, competitor Ab-3
# Procedure: as §1, §2, §3
row,binding (RU),Binder
1,946,B1
2,432,B2
3,869,B5
4,892,B4

# Target: T2, rat sclerostin peptide …
# Test: ELISA on rat sclerostin peptides coupled to sulfhydryl binding plates, antibody at 1 ug/ml
# Procedure: A series of overlapping peptides (each peptide being approximately 20-25 amino acids long) were synthesized based on the known amino acid sequence of rat sclerostin (SEQ ID NO:98). […] This enabled the peptides to be bound to the assay plates by covalent coupling, using commercially available sulfhydryl binding plates (Costar), at a concentration of […], in phosphate buffered saline (PBS: pH 6.5) containing 1 mM EDTA. Following incubation for 1 hour at room temperature, the plates were washed three times with PBS containing 0.5% Tween 20. The plates were blocked by incubation with a PBS solution containing 0.5% fish skin gelatin (Sigma) for 30 minutes at room temperature and then washed three times in PBS containing 0.5% Tween 20.
# Antibodies to be tested were diluted to 1 μg/ml in PBS containing 0.5% fish skin gelatin and incubated with the peptide-coated plates for 1 hour at room temperature. Excess antibody was removed by three washes with PBS, 0.5% Tween 20. […] Finally the plates were incubated with a horseradish peroxidase chromogenic substrate (TMB-Stable Stop, RDI) for 5 minutes at room temperature, the color development was stopped with acid, and the plates' optical density measured at 450 nm.
row,binding result,Binder
1,binds,B4
